From the supplement of paper PMC10126150
± gives the standard deviation of the averaged measurements.

System: ATP
Assay: switch fluorescence ratio, 500 uM ATP over buffer (Cy3 cluster intensity, sum of 5 cycles each) (fold (ratio)); higher = stronger signal-on switching upon ATP binding; sequences stand for … in TCGTCGGCAGCGTCAGATGTGTATAAGAGACAGTTTTTTTTTTTTTTTTTTTTTTTTT…TC
Conditions: aptamer strand: ATP DNA aptamer (quencher-CACCTGGGGGAGTATTGCGGAGGAAGG + anchor), 100 nM annealed; ATP concentration: 500 uM
In short: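 Switching-strand clusters labelled with Cy3 on a modified Illumina MiSeq flow-cell were annealed to 100 nM quencher-labelled ATP aptamer, imaged in selection buffer, and re-imaged after 15 min with 500 uM ATP at 22 °C. This was done over five cycles with NaOH stripping and re-annealing in between. The fluorescence ratio is summed target-cycle over summed buffer-cycle Cy3 intensity per cluster, averaged per switch-domain sequence, excluding clusters outside 100-1000 RFU.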
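Also: ATP exposure 15 min at 22 °C before imaging.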

TATATGATTA
switch fluorescence ratio: 0.973 ± 0.016

TATATGCCGT
switch fluorescence ratio: 1.02 ± 0.066

TATATGGGAA
switch fluorescence ratio: 0.998 ± 0.029

TATATGGGGG
switch fluorescence ratio: 0.981 ± 0.026

TATATGGTCC
switch fluorescence ratio: 0.9841 ± 0.0083

TATATGTAAT
switch fluorescence ratio: 1.01 ± 0.038

TATATTAAAG
switch fluorescence ratio: 0.976 ± 0.015

TATATTACCA
switch fluorescence ratio: 1.01 ± 0.051

TATATTCAGT
switch fluorescence ratio: 1.02 ± 0.0099

TATATTGGGG
switch fluorescence ratio: 0.991 ± 0.018

TATATTTCTG
switch fluorescence ratio: 0.986 ± 0.019

TATATTTGTA
switch fluorescence ratio: 0.979 ± 0.024

TATCACTTCC
switch fluorescence ratio: 1.96 ± 0.023

TATCAGCATG
switch fluorescence ratio: 1.01 ± 0.033

TATCAGTTGT
switch fluorescence ratio: 1.03 ± 0.013

TATCATGAG
switch fluorescence ratio: 1 ± 0.033

TATCCAAGTT
switch fluorescence ratio: 0.999 ± 0.013

TATCCGTGGG
switch fluorescence ratio: 0.973 ± 0.051

TATCCTTAGG
switch fluorescence ratio: 1.01 ± 0.059

TATCCTTTGT
switch fluorescence ratio: 1.22 ± 0.2

TATCGAAAAA
switch fluorescence ratio: 0.967 ± 0.054

TATCGAAATT
switch fluorescence ratio: 0.981 ± 0.021

TATCGATGTT
switch fluorescence ratio: 1.005 ± 0.0099

TATCGGACTG
switch fluorescence ratio: 1.01 ± 0.13

TATCGGATAA
switch fluorescence ratio: 0.9947 ± 0.0037

TATCGGGACT
switch fluorescence ratio: 0.9751 ± 0.006

TATCGGGTCG
switch fluorescence ratio: 1.12 ± 0.13

TATCGGTCTT
switch fluorescence ratio: 0.9224 ± 0.0088

TATCGGTTGG
switch fluorescence ratio: 1.044 ± 0.0086

TATCGGTTGT
switch fluorescence ratio: 1.03 ± 0.015

TATCGTTGTT
switch fluorescence ratio: 1 ± 0.021

TATCTACTGG
switch fluorescence ratio: 1.0076 ± 0.00035

TATCTATGGG
switch fluorescence ratio: 0.983 ± 0.047

TATCTATGTA
switch fluorescence ratio: 1.01 ± 0.02

TATCTGGGGT
switch fluorescence ratio: 1.02 ± 0.025

TATCTGGGTA
switch fluorescence ratio: 0.978 ± 0.01

TATCTGTTGT
switch fluorescence ratio: 0.967 ± 0.033

TATCTTATTT
switch fluorescence ratio: 0.9874 ± 0.0093

TATCTTTTTT
switch fluorescence ratio: 0.98 ± 0.024

TATGAAATGT
switch fluorescence ratio: 1.01 ± 0.033

TATGAAGACG
switch fluorescence ratio: 1.12 ± 0.064

TATGAAGAGG
switch fluorescence ratio: 0.994 ± 0.033

TATGAAGCCC
switch fluorescence ratio: 1.02 ± 0.039

TATGAATCCG
switch fluorescence ratio: 1 ± 0.063

TATGACATTA
switch fluorescence ratio: 1.025 ± 0.0026

TATGACGACG
switch fluorescence ratio: 1.04 ± 0.045

TATGACGGGG
switch fluorescence ratio: 0.962 ± 0.014

TATGACTTTG
switch fluorescence ratio: 1.03 ± 0.071

TATGAGATAG
switch fluorescence ratio: 0.982 ± 0.021

TATGAGATTT
switch fluorescence ratio: 0.955 ± 0.026

TATGAGGATC
switch fluorescence ratio: 1.01 ± 0.039

TATGAGGATT
switch fluorescence ratio: 0.9749 ± 0.0023

TATGAGGGCT
switch fluorescence ratio: 1.04 ± 0.012

TATGAGTCGA
switch fluorescence ratio: 1 ± 0.019

TATGATCTGT
switch fluorescence ratio: 0.979 ± 0.021

TATGATGGGG
switch fluorescence ratio: 0.963 ± 0.035

TATGATTTGG
switch fluorescence ratio: 0.976 ± 0.031

TATGCAGGGA
switch fluorescence ratio: 1.16 ± 0.29

TATGCATGTG
switch fluorescence ratio: 0.996 ± 0.015

TATGCCATTT
switch fluorescence ratio: 1.0337 ± 0.00046

TATGCGGCTT
switch fluorescence ratio: 0.988 ± 0.04

TATGCGGGGG
switch fluorescence ratio: 1.02 ± 0.046

TATGGAATGG
switch fluorescence ratio: 0.997 ± 0.046

TATGGACTGT
switch fluorescence ratio: 1.021 ± 0.01

TATGGAGCCA
switch fluorescence ratio: 1.02 ± 0.032

TATGGAGGAT
switch fluorescence ratio: 1.09 ± 0.13

TATGGATAGG
switch fluorescence ratio: 0.996 ± 0.014

TATGGCCGTG
switch fluorescence ratio: 0.998 ± 0.061

TATGGGAATG
switch fluorescence ratio: 1.019 ± 0.0021

TATGGGATGT
switch fluorescence ratio: 0.988 ± 0.016

TATGGGATTA
switch fluorescence ratio: 1.04 ± 0.064

TATGGGATTG
switch fluorescence ratio: 0.998 ± 0.021

TATGGGGCAA
switch fluorescence ratio: 1.091 ± 0.0015

TATGGGGGAT
switch fluorescence ratio: 1.03 ± 0.093

TATGGGGGGT
switch fluorescence ratio: 0.976 ± 0.017

TATGGGTAAT
switch fluorescence ratio: 0.975 ± 0.016

TATGGGTGGC
switch fluorescence ratio: 1.02 ± 0.11

TATGGTAGGG
switch fluorescence ratio: 0.9886 ± 0.0076

TATGGTCTGT
switch fluorescence ratio: 0.981 ± 0.042

TATGGTGGAG
switch fluorescence ratio: 0.981 ± 0.02

TATGGTGGTT
switch fluorescence ratio: 1.12 ± 0.12

TATGGTGTTT
switch fluorescence ratio: 1.02 ± 0.036

TATGTAAGGG
switch fluorescence ratio: 1.01 ± 0.026

TATGTACGCA
switch fluorescence ratio: 1.11 ± 0.018

TATGTACGTG
switch fluorescence ratio: 1.02 ± 0.053

TATGTACTAA
switch fluorescence ratio: 1.08 ± 0.023

TATGTCCGTA
switch fluorescence ratio: 1 ± 0.013

TATGTGAAAA
switch fluorescence ratio: 0.9747 ± 0.006

TATGTGACTT
switch fluorescence ratio: 1.03 ± 0.0074

TATGTGAGTT
switch fluorescence ratio: 1.001 ± 0.0099

TATGTGGGGT
switch fluorescence ratio: 0.992 ± 0.026

TATGTTAGGA
switch fluorescence ratio: 1.0104 ± 0.00038

TATGTTATTT
switch fluorescence ratio: 1.02 ± 0.012

TATGTTCCAA
switch fluorescence ratio: 1.01 ± 0.03

TATGTTGGTG
switch fluorescence ratio: 0.987 ± 0.018

TATGTTGTAC
switch fluorescence ratio: 1.052 ± 0.0086

TATGTTGTAT
switch fluorescence ratio: 0.984 ± 0.053

TATGTTTCAA
switch fluorescence ratio: 1.017 ± 0.0089

TATGTTTCTA
switch fluorescence ratio: 1.0004 ± 0.00054

TATGTTTTTC
switch fluorescence ratio: 0.9687 ± 0.0014

TATTAAAAGA
switch fluorescence ratio: 0.99 ± 0.03

TATTAAAGGG
switch fluorescence ratio: 0.985 ± 0.017

TATTAAATTT
switch fluorescence ratio: 1.031 ± 0.0051

TATTAACTAG
switch fluorescence ratio: 1.02 ± 0.0022

TATTAAGAAA
switch fluorescence ratio: 0.962 ± 0.016

TATTAAGG
switch fluorescence ratio: 1.01 ± 0.011

TATTAAGGA
switch fluorescence ratio: 0.9762 ± 0.009

TATTAAGTAG
switch fluorescence ratio: 1.03 ± 0.038

TATTAATAA
switch fluorescence ratio: 1 ± 0.0029

TATTAATGTT
switch fluorescence ratio: 0.997 ± 0.019

TATTAATTAT
switch fluorescence ratio: 1.01 ± 0.022

TATTACAAT
switch fluorescence ratio: 1.03 ± 0.052

TATTACCTTA
switch fluorescence ratio: 1.03 ± 0.044

TATTACGAAA
switch fluorescence ratio: 1.1 ± 0.032

TATTACTCGT
switch fluorescence ratio: 1.01 ± 0.07

TATTACTTAG
switch fluorescence ratio: 1.062 ± 0.01

TATTACTTGC
switch fluorescence ratio: 1.03 ± 0.042

TATTAGGGAT
switch fluorescence ratio: 0.9951 ± 0.0058

TATTAGGGGG
switch fluorescence ratio: 0.984 ± 0.048

TATTAGGGTG
switch fluorescence ratio: 1.05 ± 0.098

TATTAGGTAT
switch fluorescence ratio: 0.961 ± 0.018

TATTAGGTCT
switch fluorescence ratio: 0.991 ± 0.045

TATTAGTGAT
switch fluorescence ratio: 0.9869 ± 0.0055

TATTATATGG
switch fluorescence ratio: 1.03 ± 0.027

TATTATCGTA
switch fluorescence ratio: 0.9927 ± 0.0081

TATTATGCGG
switch fluorescence ratio: 0.984 ± 0.017

TATTATTGCG
switch fluorescence ratio: 0.988 ± 0.011

TATTCGCCCA
switch fluorescence ratio: 1.11 ± 0.2

TATTCGGATT
switch fluorescence ratio: 0.984 ± 0.03

TATTCGGGGG
switch fluorescence ratio: 1.04 ± 0.078

TATTCGTGGG
switch fluorescence ratio: 0.956 ± 0.048

TATTCGTTCT
switch fluorescence ratio: 0.9985 ± 0.0022

TATTCTCATC
switch fluorescence ratio: 1.013 ± 0.0027

TATTCTGGTT
switch fluorescence ratio: 1.02 ± 0.05

TATTCTTTGA
switch fluorescence ratio: 1.02 ± 0.03

TATTGAATTC
switch fluorescence ratio: 1.01 ± 0.016

TATTGACTTT
switch fluorescence ratio: 1.28 ± 0.35

TATTGAGTTA
switch fluorescence ratio: 1.01 ± 0.033

TATTGCTCAC
switch fluorescence ratio: 1.04 ± 0.02

TATTGGAGTG
switch fluorescence ratio: 0.966 ± 0.084

TATTGGGGCG
switch fluorescence ratio: 0.982 ± 0.017

TATTGGGGTT
switch fluorescence ratio: 0.996 ± 0.04

TATTGGGTAT
switch fluorescence ratio: 1.03 ± 0.038

TATTGGTAGG
switch fluorescence ratio: 0.941 ± 0.019

TATTGGTCGT
switch fluorescence ratio: 0.968 ± 0.042

TATTGGTTCA
switch fluorescence ratio: 0.996 ± 0.018

TATTGGTTTG
switch fluorescence ratio: 1.04 ± 0.045

TATTGTGCTT
switch fluorescence ratio: 0.982 ± 0.035

TATTGTGTTT
switch fluorescence ratio: 0.9781 ± 0.0039

TATTGTTCGC
switch fluorescence ratio: 0.98 ± 0.046

TATTGTTTTT
switch fluorescence ratio: 1.01 ± 0.022

TATTTAAAAT
switch fluorescence ratio: 0.995 ± 0.046

TATTTAAACG
switch fluorescence ratio: 1 ± 0.011

TATTTAGTAG
switch fluorescence ratio: 1.006 ± 0.0072

TATTTAGTTG
switch fluorescence ratio: 1 ± 0.024

TATTTATAAA
switch fluorescence ratio: 0.998 ± 0.025

TATTTATTAG
switch fluorescence ratio: 0.991 ± 0.029

TATTTCAGTC
switch fluorescence ratio: 1.01 ± 0.02

TATTTCGAAT
switch fluorescence ratio: 1.11 ± 0.18

TATTTCGTTG
switch fluorescence ratio: 0.998 ± 0.059

TATTTGAATG
switch fluorescence ratio: 1.01 ± 0.028

TATTTGAGTT
switch fluorescence ratio: 0.96526 ± 0.00075

TATTTGATGT
switch fluorescence ratio: 0.991 ± 0.029

TATTTGGAAA
switch fluorescence ratio: 0.991 ± 0.036

TATTTGGACG
switch fluorescence ratio: 1.05 ± 0.068

TATTTGGAGT
switch fluorescence ratio: 1.012 ± 0.0022

TATTTGGGCA
switch fluorescence ratio: 1.01 ± 0.041

TATTTGGTGA
switch fluorescence ratio: 0.993 ± 0.025

TATTTGGTGG
switch fluorescence ratio: 1.02 ± 0.027

TATTTGGTT
switch fluorescence ratio: 0.991 ± 0.024

TATTTGTAAT
switch fluorescence ratio: 1.03 ± 0.02

TATTTGTAGG
switch fluorescence ratio: 1.05 ± 0.045

TATTTGTGTT
switch fluorescence ratio: 0.997 ± 0.016

TATTTGTTCT
switch fluorescence ratio: 1 ± 0.024

TATTTTAATT
switch fluorescence ratio: 0.991 ± 0.017

TATTTTACGT
switch fluorescence ratio: 1.01 ± 0.013

TATTTTCGTA
switch fluorescence ratio: 1 ± 0.021

TATTTTCTGT
switch fluorescence ratio: 0.997 ± 0.036

TATTTTGGAA
switch fluorescence ratio: 0.986 ± 0.044

TATTTTGGGG
switch fluorescence ratio: 0.988 ± 0.019

TATTTTGTTT
switch fluorescence ratio: 0.99 ± 0.014

TATTTTTAGG
switch fluorescence ratio: 1 ± 0.032

TCAAAAAAAT
switch fluorescence ratio: 1.02 ± 0.091

TCAAAATTTA
switch fluorescence ratio: 1.02 ± 0.048

TCAAACAGGG
switch fluorescence ratio: 1.04 ± 0.051

TCAAACATTT
switch fluorescence ratio: 1.016 ± 0.0076

TCAAACCGGT
switch fluorescence ratio: 0.983 ± 0.043

TCAAACTTTA
switch fluorescence ratio: 1.03 ± 0.025

TCAAAGACGG
switch fluorescence ratio: 1.02 ± 0.016

TCAAAGCAAA
switch fluorescence ratio: 1.41 ± 0.077

TCAAATCGGG
switch fluorescence ratio: 0.999 ± 0.014

TCAAATGGTA
switch fluorescence ratio: 1.006 ± 0.0037

TCAAATTCGG
switch fluorescence ratio: 1.01 ± 0.011

TCAACAACCA
switch fluorescence ratio: 1.06 ± 0.017

TCAACCGGGA
switch fluorescence ratio: 1.06 ± 0.09

TCAACGCCCC
switch fluorescence ratio: 1.28 ± 0.055

TCAACTATTA
switch fluorescence ratio: 0.977 ± 0.018

TCAAGATA
switch fluorescence ratio: 1.13 ± 0.21

TCAAGATTTT
switch fluorescence ratio: 0.975 ± 0.025

TCAAGGCACA
switch fluorescence ratio: 1.089 ± 0.01
